Experimental findings from publication PMC2132719 are described below.

The experiment has as its target NLS-HSA (SV-40 large T antigen NLS peptide coupled to human serum albumin) (human | SV-40) (UniProt P02768). The experiment is described as follows: pull-down.

Xenopus Nup62 (natural protein) gave a percent of the protein in the extract bound of under 1%.
